Data as given in the supplement of paper PMC9170038.

Each sequence was assayed on K4 kissing-loop RNA reporter (assay: apparent KD of K4 kissing-loop reporter; higher = weaker reporter binding). Conditions: Eterna round: R107; input ligand: arginine 13.2 mM.
Experimental: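 RNA-MaP round R107: designed RNA switches with theophylline, tryptophan, arginine or FMN aptamers are transcribed on-chip within common flanks. They are titrated with a labelled K4 kissing-loop RNA reporter in RNA-MaP buffer (100 mM Tris pH 7.5, 80 mM KCl, 4 mM MgCl2), without ligand or with the indicated ligand. Median apparent KD per design.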
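Also: bound reporter read as fluorescence of individual clusters on recovered sequencing chips by microscopy, with normalized cluster intensities fitted with a binding model.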

| Sequence | apparent KD of K4 kissing-loop reporter |
| --- | --- |
| UAUUUAGUGACGGCCGCCACUAUGGUGAUUUAUUUGUUUGAGUGAUGUUUUGAUGUUUGAUUUUGUAGGACCGGGUUAUGUGUUG [yyycmullin] | 0.688 µM |
| AUUAAUUUCAGAGGAUAUGCUUUAUUAUUAUUUUUAAAUAAUAUAAGCAGUGAUGUUGCUUUUUAUGCAGAAGGCUGAUUUAUAA [JR_SSFMNB_Sub016] | 0.397 µM |
| CUUAUUUCUCGCUAUGAUGUUAGUUGAGCCAAGGAUAUUAAUGAAUUAAGAAGGUGGGUUUUUAAGUGAUGUUUUGAGACUGGCA [theeternabot_exclusion_KL_FMN_A_27] | 0.718 µM |
| CCAUCGCUAUUCGAUACCAGCCAGGAGGUCUUUGGCCUCCUAUUGGAGUGAUGUUCCAUAGGCCCUUGGCAGCGAAUAGUGAUGG [Theophylline B K4 16] | 0.187 µM |
| GCAGGAUAGCGCGGUGCAGUGAUGUUGCACCGAGGACCGGUACGGCCGCCACUCGCUUAGAUAUCGUGUGAUGGGUAUGUCUAGA [theeternabot_exclusion_KL_Trp_A_8] | 0.11 µM |
| AGUGCACUGUCAGGAUAUAUACAGUGAUGUUGUGUAUGUCAGCAAGUCAAAGACUUGCUAUUCUGUGUAGAAGGGACUGUGUACA [Omei KL FMN B Exc A v1] | 0.203 µM |
| GUGGCGACGCAAGGAUAUGGGUGCUAGUGAUGUUAGCCUUUGCUCCAUGUCACGUGGUCUGCACACCCAGAAGGUGCGGGAAGAU [theeternabot_exclusion_KL_FMN_B_9] | 0.293 µM |
| AAGUGAUGUUGUAGUGAUGUUGUGAUGUUGCAGGAUAUAUAGUGAUGUAGAAGGGUAUGUGCAGUGUUGUUGUUUGAGUGUUGAU [twwumullin] | 0.0432 µM |
| AAGUGAUGUUGUAGUGAUGUUGUGAUGUUGCAGGAUAUAUAGUGAUGUAGAAGGGUAUGUACUUAUUUUUUAUUUGAGUUAUGUU [mmvmmullin] | 0.0298 µM |
| AAGAGGUAGGCGGCCGCCACUUGUUGUGAACACAUACGAGCCAGUGAUGUUGGUAUUGUGUGCGGAAGGACCGGGCCUACCUGAA [Exclusion - Tryptophan B (Freestyle 21)] | 0.173 µM |
| GGAGUUACCUGGGAUACCAGUCGGAGUCCCAGAGCUCAGAGUGAUGUUCUGGGAUGUUUCGGCCCUUGGCAGCUCUGGGACUCCC [#2 Exclusion - Theophylline B Attempt #12 (HarryS)] | 0.509 µM |
| CGUUGUGAUGCUUGUGCUCAUACCGGAGAUACCAGUACCAUCACUUACCCUUGGCAGCUCAGUAAAGACAAGUGAUGUUUGUCAC [theeternabot_sameState_KL_Theo_A_38] | 0.528 µM |
| GCAGGACGAGGAGGAGGAUGAAUUACUGAAGGAGCGCAUAUUUUUGCAGGUAGGUCGCGGUAAACAAGUAUAGUGAUGUUAUAUC [SSArgA.N] | 0.234 µM |
| AGACCACAAAGUGGUCAGUGUUCGCUGCCGCGAGGACCGGUACGGCCGCCACUCGCGAGUGAUGUUCGCGAGGGCAGCGAACACA [Omei KL Tryp A Exc A v4] | 0.0878 µM |
| AUUAAGAUAUGAGUGAUGUUUAUGUCCGAAGGAGCGUGCGAAAGUACAGGUAGGUCGCGGAUGUGAGUGAUGUUUAUGUAAGCGU [KL-XArg-A15 #analogue] | 0.0338 µM |
| AUAGGCAUAGCCCGAGUGAUGUUCGACGAUACCAGCCUCGAUAGAGGCCCUUGGCAGCGUAAAUGAUCAUGAAGCCAAGGAAUUA [whbob_Ex_Theo_A_th70] | 0.335 µM |
| CAGAACUUGUAUACAGGGCAUGCCAGAGAUACCAGUCAAAUGGAAGGCCCUUGGCAGCUCAGGCGAGUGAUGUUCGCAGGCUGAC [Exclusion Theophylline A GF 19] | 0.122 µM |
| AGACUACUGAUAGGAUAUAACAUCCUAGUCGUAUACCGAAAGGUAUACGAUUUCCUUCUAGUGAUGUUAGAAGGGUCGGUAGUCA [Omei KL FMN B Exc B v11] | 0.0824 µM |
| GGAUAGGAGAGAGGAUAUGGGCUAGGCAAGAAUAACUUGUCUAGCAAAUCCAUGAGGAGUGAUGUUCCAGAAGGCUCUCCUAUCG [FmnBX 1 G9+C77] | 0.148 µM |
| CAAAACGAGUGAUGUUCGGACAACAACGUUAAGGAUAUACUUCUCUGUAGAAGGUAACAGUAUUUAUAUUUCAUCAACGAAAAUG [theeternabot_exclusion_KL_FMN_A_12] | 0.183 µM |
| AAAUAUUCGAGUGAUGUUCGAUAAAUUUCAGAGGAUAUGCUUAAAAGCAGAAGGCUGUAUUUCUAUUUGUUAUGAAAUUUUAUAA [JR_ExcFMNA_Sub003] | 0.113 µM |
| GGAUAGGACAGAGGAUAUGGACAGUCUACAAAGUAGGCUGAAAAUCCUUGAAUGGAAGUGAUGUUUCCAGAAGGCUGUCCUAUCG [FmnBX 20 - #SwitchBubble #StaticStem #Palindromic] | 0.145 µM |
| GUUCUCGAAACUCAGUGAUGUUGAGUUGCAGAGGAUAUCCGCACAUGGAGAAGGCUGCAGUAAUUUAAAGACUCAGCGGCGCUCC [Riare] | 0.117 µM |
| UUUAUGAUGUCGGCCGCCACUGGAUUAAUAUGUGUGUAAUCUAGUUCUGAGUGAUGUUUAGAGUCCAGGACCGGGACAUUUGUUA [#11 K4 Tryptophan B Exclusion] | 0.373 µM |

Same assay, conditions: Eterna round: R107; input ligand: none

| Sequence | apparent KD of K4 kissing-loop reporter |
| --- | --- |
| AAUCCUAACGGAGUGAUGUUCCGUAGCGAUACCAGCCAUUGCGAUGGCCCUUGGCAGCGCUAUAAGCAUUGCUAGUAAGGGCCAA [Theo A Ex t7] | 0.168 µM |
| AAGUGUGUGGCGGCCGCCACUAGAAUCCAGUGAUGUUGGAGUUAUCAGAUAAAUGAUAAUCAACAUAGGACCGGGCCAUAUAGAA [Same State - Tryptophan B (Freestyle 5)] | 0.455 µM |
| CCUAUCUCUUACGAUACCAGUCAAUGAUAUUUUAUCAAUGCCCUCACCGAGUGAUGUUCGGACCCUUGGCAGCGUCUGGGAUAGG [pvppimullin] | 0.212 µM |
| AAUUACCUAGUGAUGUUGGGAAUAAUAUAACGAGGACCGGUACGGCCGCCACUCGAGGUCCUAAUUAAGAACGCGAAAGCGAAGA [Tryptophan A Exclusion; Euphoria Solution] | 0.0931 µM |
| UUGGAGUGAUGUUCCAUGUCUUGAGCCGAAGGAGCGCCUUUCUAGGCAGGUAGGUCGCGGCAGAAGGUACCAGUGAUGUUGGAAA [Same State Arginine A GF9] | 0.283 µM |
| UGCUUUAUCAGAAGGAGCGCGUUAUUCAUAAUAAUAAUCAGUGAUGUUGAUAUAUGAUGAUUGCAGGUAGGUCGCUGAUAUAGCU [KL-XARG-B3] | 0.274 µM |
| AGAUAGGGCUGAAGGAGCGUCGGAGAAGAGAAGAAGGAAUCCAGUGAUGUUGGAUAAAUCCGACAGGUAGGUCGCAGUUUUAUGA [hbob_SS_Arginine_B_2t138] | 0.099 µM |
| UAUUUAGUGACGGCCGCCACUAUGGUGAUUUAUUUGUUUGAGUGAUGUUUUGAUGUUUGAUUUUGUAGGACCGGGUUAUGUGUUG [yyycmullin] | 0.818 µM |
| AUUAAUUUCAGAGGAUAUGCUUUAUUAUUAUUUUUAAAUAAUAUAAGCAGUGAUGUUGCUUUUUAUGCAGAAGGCUGAUUUAUAA [JR_SSFMNB_Sub016] | 0.383 µM |
| CUUAUUUCUCGCUAUGAUGUUAGUUGAGCCAAGGAUAUUAAUGAAUUAAGAAGGUGGGUUUUUAAGUGAUGUUUUGAGACUGGCA [theeternabot_exclusion_KL_FMN_A_27] | 0.863 µM |
| CCAUCGCUAUUCGAUACCAGCCAGGAGGUCUUUGGCCUCCUAUUGGAGUGAUGUUCCAUAGGCCCUUGGCAGCGAAUAGUGAUGG [Theophylline B K4 16] | 0.283 µM |
| GCAGGAUAGCGCGGUGCAGUGAUGUUGCACCGAGGACCGGUACGGCCGCCACUCGCUUAGAUAUCGUGUGAUGGGUAUGUCUAGA [theeternabot_exclusion_KL_Trp_A_8] | 0.123 µM |
| AGUGCACUGUCAGGAUAUAUACAGUGAUGUUGUGUAUGUCAGCAAGUCAAAGACUUGCUAUUCUGUGUAGAAGGGACUGUGUACA [Omei KL FMN B Exc A v1] | 0.23 µM |
| GUGGCGACGCAAGGAUAUGGGUGCUAGUGAUGUUAGCCUUUGCUCCAUGUCACGUGGUCUGCACACCCAGAAGGUGCGGGAAGAU [theeternabot_exclusion_KL_FMN_B_9] | 0.327 µM |
| AAGUGAUGUUGUAGUGAUGUUGUGAUGUUGCAGGAUAUAUAGUGAUGUAGAAGGGUAUGUGCAGUGUUGUUGUUUGAGUGUUGAU [twwumullin] | 0.0747 µM |
